From the supplement of paper PMC7125110
± gives the standard error. This sample holds only a part of the variants without activity.

B1: glmS ribozyme (parent)
chain: AUAAAAGCGCCAGAACUACAGAAAUGUAGUUGACGAGGAGGAGGUUUAUCGAAUUUUCGGCGGAUGCCUCCAAA

How the values were obtained:
Details in all cases: with glucosamine-6-phosphate
glucosamine-6-phosphate [1] = variants of: B1; test: self-cleavage kobs at 160 uM GlcN6P; higher = faster cleavage; RNA array
How it was run: (§1)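 On sequenced MiSeq chips, barcoded ribozyme variants were made in situ by E. coli RNA polymerase and followed at 37 °C through a hybridised Cy3 probe. Glucosamine-6-phosphate was flowed in at 40 μM to 10 mM in HEPES/KCl/Mg(OAc)2 buffer. Exponential fits to normalised per-tile medians gave kobs, and weighted Michaelis–Menten fits gave kcat and KM.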

glucosamine-6-phosphate [2] = variants of: B1; test: self-cleavage kobs at 640 uM GlcN6P; higher = faster cleavage; RNA array
How it was run: as §1

glucosamine-6-phosphate [3] = variants of: B1; test: self-cleavage kobs at 2500 uM GlcN6P; higher = faster cleavage; RNA array
How it was run: as §1

glucosamine-6-phosphate [4] = variants of: B1; test: self-cleavage kobs at 10000 uM GlcN6P; higher = faster cleavage; RNA array
How it was run: as §1

| Variant | self-cleavage kobs at 160 uM GlcN6P (glucosamine-6-phosphate [1]) [s⁻¹] | self-cleavage kobs at 640 uM GlcN6P (glucosamine-6-phosphate [2]) [s⁻¹] | self-cleavage kobs at 2500 uM GlcN6P (glucosamine-6-phosphate [3]) [s⁻¹] | self-cleavage kobs at 10000 uM GlcN6P (glucosamine-6-phosphate [4]) [s⁻¹] |
| --- | --- | --- | --- | --- |
| G38U U65G C70U | < 1e-05 | < 1e-05 | – | – |
| C16U G43U G59U | < 1e-05 | < 1e-05 | – | – |
| G13U G32A G41C G63U C71A | < 1e-05 | < 1e-05 | < 1e-05 | – |
| C16G A52G U69G | 9.5e-05 ± 3e-05 | – | 0.000143 ± 3.9e-05 | – |
| A6U G38U G60C | < 1e-05 | – | – | – |
| C16A G35A G43A | < 1e-05 | < 1e-05 | < 1e-05 | – |
| C16G G62C A64U | < 1e-05 | – | – | – |
| U30C U31G C50G C70G | 0.000158 ± 4.4e-05 | 0.000289 ± 0.0001 | 0.00026 ± 5.8e-05 | – |
| C10U G51C | < 1e-05 | – | – | – |
| G7U G13U A15U G40C G41A A52U | < 1e-05 | < 1e-05 | < 1e-05 | – |
| A6C G32U A64G C67U | < 1e-05 | < 1e-05 | < 1e-05 | – |
| C8G A33C A48C U69G | < 1e-05 | – | < 1e-05 | – |
| G9U C34U U54A | < 1e-05 | – | – | – |
| A15C A64U | < 1e-05 | < 1e-05 | – | – |
| U31C G32C A33U C34A U49A | < 1e-05 | – | < 1e-05 | < 1e-05 |
| G41A G60A G63U | < 1e-05 | < 1e-05 | < 1e-05 | < 1e-05 |
| G7C G13U A42G | < 1e-05 | – | – | < 1e-05 |
| U49C G51C | < 1e-05 | < 1e-05 | < 1e-05 | – |
| A39U C61U G62U | < 1e-05 | < 1e-05 | < 1e-05 | – |
| G35C G37C U46C G63U | < 1e-05 | < 1e-05 | < 1e-05 | – |
| C11G U47G | < 1e-05 | – | < 1e-05 | < 1e-05 |
| A12G A15U A53C C67A | < 1e-05 | – | – | – |
| A6U A48C U57G | < 1e-05 | – | – | – |
| C11G A14G U31C A42G U56G A64U U65A | < 1e-05 | < 1e-05 | – | – |
| G9U A39G | < 1e-05 | – | < 1e-05 | – |
| A6U C11A | < 1e-05 | < 1e-05 | < 1e-05 | – |
| G13C A14G U55G G59U C68G | 0.000122 ± 5.4e-05 | 0.000281 ± 7e-05 | 9.91e-05 ± 3.7e-05 | – |
| C8A A33U | < 1e-05 | – | < 1e-05 | < 1e-05 |

| Variant | self-cleavage kobs at 160 uM GlcN6P (glucosamine-6-phosphate [1]) [s⁻¹] | self-cleavage kobs at 640 uM GlcN6P (glucosamine-6-phosphate [2]) [s⁻¹] | self-cleavage kobs at 2500 uM GlcN6P (glucosamine-6-phosphate [3]) [s⁻¹] | self-cleavage kobs at 10000 uM GlcN6P (glucosamine-6-phosphate [4]) [s⁻¹] |
| --- | --- | --- | --- | --- |
| U69G C70G | 3.61e-05 ± 8.8e-06 | 0.000255 ± 0.00013 | 3.6e-05 ± 9.1e-06 | – |
| A6G U57A G60A C71G | < 1e-05 | < 1e-05 | < 1e-05 | – |
| G13A C34G G62U | < 1e-05 | < 1e-05 | – | – |
| A14C A39U U56A G63U | < 1e-05 | – | – | – |
| A39G U65C | 5.26e-05 ± 2.5e-05 | 0.000513 ± 0.00015 | 0.00163 ± 0.0005 | – |
| A33C G41A | < 1e-05 | < 1e-05 | – | – |
| C8A C34U G40U G41U U45A G62U | < 1e-05 | – | – | – |
| G29A U30G G35A G38U U46A C71G | < 1e-05 | – | – | – |
| U46G G60C A64U | < 1e-05 | – | < 1e-05 | < 1e-05 |
| A6C C8G G35C C58U C67G | < 1e-05 | – | < 1e-05 | – |
| C8G C61A C68U | < 1e-05 | – | – | – |
| A42C G51U A53C C71G | < 1e-05 | – | – | – |
| C16A A33G A64G C71G | 8.57e-05 ± 3.4e-05 | – | 6.35e-05 ± 2.8e-05 | – |
| A15G A33C C58G | < 1e-05 | < 1e-05 | – | – |
| C8G C16U C34U U65G | < 1e-05 | – | – | – |
| C50G U54A U65A | 0.00014 ± 3.8e-05 | – | 5.15e-05 ± 2e-05 | 5.29e-05 ± 1.5e-05 |
| A42G U46G U65C C68U | < 1e-05 | – | – | – |
| A33U G38U G41C G66U | < 1e-05 | – | < 1e-05 | – |
| A12G G40A C61U | < 1e-05 | – | – | – |
| C16U G43U U57C | < 1e-05 | < 1e-05 | < 1e-05 | – |
| A33U G35C U57C U65C | < 1e-05 | < 1e-05 | < 1e-05 | – |
| C8G G44A | < 1e-05 | < 1e-05 | < 1e-05 | < 1e-05 |
| G35U U69A | < 1e-05 | < 1e-05 | < 1e-05 | – |
| A14U U30C G43A | < 1e-05 | < 1e-05 | < 1e-05 | – |
| G35A C68U | < 1e-05 | – | < 1e-05 | – |
| A15G G40A A53G | 0.000772 ± 0.00017 | – | 0.00292 ± 0.00062 | – |
| C19A U65A | 0.000107 ± 4.8e-05 | – | 0.00137 ± 0.00051 | – |
